Test: yeast display, Sf9 membrane polyspecificity reagent, FACS + sequencing; frameworks hold sequencing errors
Procedure, shortened: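 Genes from sorted yeast were amplified by colony PCR, read by MiSeq 2 × 250 sequencing and filtered on CDR length. These cells carried a synthetic nanobody library in Saccharomyces cerevisiae BJ5465 and were sorted by FACS into low and high (top ~1%) gates on anti-HA and streptavidin fluorescence. Polyreactivity is labelled according to the gate of origin.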

Sequence	polyreactivity (PSR sort gate)
QVQLVESGGGLVQAGGSHRLSCAASGFTINFYSMGWYRQAPGKERELVAAITASGGGSTYYADSVKGRFTISRDNAKNTVYLQMNSLKPEDTAVYYCNADYTGSFYTYDYWGQGTQVTVSS	low polyreactivity
QVQLVESGGGLVQAGGSHRLSCAASGGTFDDYALGWYRQAPGKERELVAAISSSGGSTYYADSVKGRFTISRDNAKNTVYLQMNSLKPEDTAVYYCAVDAYWRLWYYPYESHHDYWGQGTQVTVSS	low polyreactivity
QVQLVESGGGLVQAGGSHRLSCAASGITFNVYAMGWYRQATGKERELVAAISYNGGRTYYADSVKGRFTISRDNAKNTVYLQMNSLKPEDTAVYYCNTVSLSLRYDYWGQGTQVTVSS	high polyreactivity
QVQLVESGGGLVQAGGSHRLSCAASGLTFDHYAMGWYRQAPGKERELVAAISRTGTRTYYADSVKERFTISRDNAKNTVYLQMNSLKPEDTAVYYCNAGTYWQGDSYDYWGQGTQVTVSS	low polyreactivity
QVQLVESGGGLVQAGGSHRLSCAASGRIFVYYPRGWYRQAPGIETELVAAINAGRSTNYADSVKGRFTNSRDNAKNNVYLQMNSLKLQDTAVYFCAAVRRSRYSYRGYYWGQGTQVTVSS	high polyreactivity
QVQLVESGGGLVQAGGSHRLSCAASGRIIGYNPMGWYRQAPGKERELVASIRYSGGSTYYADSVKGRFTISRDNAKNPVYLQMNSLKPEDTAVYYCATRVTYRRRFDYWGQGTQVTVSS	high polyreactivity
QVQLVESGGGLVQAGGSHRLSCAASGRIYGDYAMGWYRQAPGKERELVAAINSSGTSTIYADSVKGRFTISRDNAKNTVYLQLNCLKPEDTAVYYCADLFTFKYDYWGQGTQVTVSS	low polyreactivity
QVQLVESGGGLVQAGGSHRLSCAASGRLFSWNAMGWYRQAPGTERELVAAITNGGGTYYADSVKGRFTISRDNAKNTVYLQMNSLKPEDTAVYYCNAYRRKLWYPTGLYWGQGTQVTVSS	high polyreactivity
QVQLVESGGGLVQAGGSHRLSCAASGRTFEYNAMGWYRQAPGKERELVATITRASTNYADSVKGRFTISRDNAKNTVYLQMNSLKPEDTAVYYCNARARGRRYPYSKYYYWGQGTQVTVSS	high polyreactivity
QVQLVESGGGLVQAGGSHRLSCAASGRTFEYNGKGWYRQAPGKERELVAAITRGGSTYYADSVKGRFTISRDNAKNTVYLQMNSLKPEDTAVYYCAAEVGWSRYKWLEYWGQGTQVTVSS	low polyreactivity
QVQLVESGGGLVQAGGSHRLSCAASGRTFPGNAMGWYRQAPGKERDLVAAITSSGDTDYADSVKGRFKISRDNAKNTVDLQMNSLKTEDRAVYYCAKGYSYGRPWDIYYYWGHGTQVTVSS	low polyreactivity
QVQLVESGGGLVQAGGSHRLSCAASGRTFPGNAMGWYRQAPGKERELVAAISWSGTRTYYADSVKGRFTISRDNAKNTVYLQMNSLKPEDTAVYYCNVVVKGAWDYYPYDYWGQGTQVTVSS	high polyreactivity
QVQLVESGGGLVQAGGSHRLSCAASGSIFIRYAMGWYRQAPAKERELVASITSGGSTYYADSVKGRFTISRDNEKNTVYLQMNSLKPEDTSVYYCNALPYRYRRYDYWGQGTQVTVSS	low polyreactivity
QVQLVESGGGLVQAGGSHRLSCAASGSIFYPYPMGLYRQAPGKERELVAAITTRDDSTRYADSVKGRFTISRDNAKNTGYLQMNTLKPEDTAVYYCNTDYGPVFGQYYWYELDYWGQGTQVNVSS	low polyreactivity
QVQLVESGGGLVQAGGSHRLSCAASGSTFAGNAMGWYRQAPGKERELVAAISGSGGITYYADSVKGRFTISRDNAKNTVYLQMNSLKPEDTAVYYCNAYYWFSRYGYWGQGTQVTVSS	high polyreactivity
QVQLVESGGGLVQAGGSHRLSCAASGSTFDYYAMGWYRQAPGKERELVAAITFSGDRTYYADSVKGRFTISRDNAKNTVYLQMNSLKPEDTAVYYCAARWFVYRYIFDYWGQGTQVTVSS	high polyreactivity
QVQLVESGGGLVQAGGSHRLSCAASGSTFKDYAMVWYRQAPGKERELVASITESGGSTYYADSVKGRFTISRDNAKNTVYLQMNSLNPEDTAVYYCATDLIPEGSGYDYWGQGTQVTVSS	low polyreactivity
QVQLVESGGGLVQAGGSHRLSCAASGSTFSYNTMGWYRQAPGKERELVAAIRSGGSTYYADSVKGRFTISRDNAKNTVYLQMNSLKPEDTAVYYCATDKFHRKVLHWYDYWGQGTQVTVSS	low polyreactivity
QVQLVESGGGLVQAGGSHRLSCAASGSTFTGYAMACYRQAPGKEREFVAGNTGSGGSTYYADSVKGRFTISRDIAKNSVYFQMISLKPEDTAVYYCAASFWYHYVWLDYYWGQGTQVTVSS	low polyreactivity
QVQLVESGGGLVQAGGSHRLSCAATGNTFHTNAIGWYRQAPGKERELVAAITGGGSTYYADSVKGRFTISRDNAKNTVYLQMNSLKPEDTAVYYCNTDVPYGLDVSDTIDYYYWGQGTQVTVSS	low polyreactivity
QVQLVESGGGLVQAGGSHRLSCAAYGSIFATNAMGWYRQAPGKERELVASISYSVSRTYYADSVKGRFTISRDNSMNTVYLQMNSMKPEDTAFYYSAVRQVNWFGIGYEDDYWGQGTQVTVSS	low polyreactivity
QVQLVESGGGLVQAGGSHRLSCADSGSIFWYNAMGWYRQAPGKEREFVATITWSGDSTYYADSVKGRFTISRDNAKNTVYLQMNSLKPEDTAVYYCAALLDYSVADLYSHHVSRYYYWGQGTQVTVSS	low polyreactivity

Sequence	polyreactivity (PSR sort gate)
QVQLVESGGGLVQAGGSHRLSCDASGRTFWVNAMGWYRQAPGKERELVATIRGSGVSTYYADSVNGRFTISRDNAKNTVYLKMNSLKPVDTAVYYCATTYHRVGLQYTFDYLGQGTQVTVSS	low polyreactivity
QVQLVESGGGLVQAGGSHRLSCDASGRTFYRNAMGWYRQAPGKERELVAGISSRGGSTYYADSVKGRFTISRDNAKNTVYLQMISLKPEDTAVYYCAATSSPYSIYNSWGQGTQVTVSS	high polyreactivity
QVQLVESGGGLVQAGGSHRLSCSASGITFYYYAMGWYRQAPGKERELVAAISRSGGRTYYADSVKGRFTISRDNAKNTVYLQMNSLKPEDTAVYYCAAVRYQGGDSSIEYDYWGQGTQVTVSW	high polyreactivity
QVQLVESGGGLVQAGGSHRLTCAASGSTFRRYARGWYRQAPGKERELVATISSGRRTNYADSVKGRFTISRDNAKNTVYLQMNSLKPEDTAVYYCAAAYWSSRADTVIKRYYWGQGTQVTVSS	high polyreactivity
QVQLVESGGGLVQAGGSIRISCAASGITFIDYTMGWYRQAPGKERELVAVITKTGYRTYYADSVKGRFTISRDNANNSDYLQMNSLNRSDSAVYYCNALYYIHYYEGYGYWGQGTQVTVSS	high polyreactivity
QVQLVESGGGLVQAGGSIRLRCAASGGIFSVYAMGWYIQAPGKERELVASISLSGGSTSYADSVKGRFTISRDNAKNTVYLQMNSLKPEDTAVYYCNTDFGQAHTLSWYEDMDYWGQGTQVTVSS	low polyreactivity
QVQLVESGGGLVQAGGSIRLSCAASGFTFDAYAMGWYRQAPGKESELVAAITTSGGNTNYADSVKGRFTISRDNAKNTVYLQMNSLKPEDTAVYYCASDAAVEYGKISYDYWGQGTQVTVSS	low polyreactivity
QVQLVESGGGLVQAGGSIRLSCAASGFTFRRNAMGWSRQAPGKERELVAAITSSGASTYYADSVKGRFTISRDNAKNTVYLQMNSLKPEDTAVYYCAARQTYYKYGYWGQGTQVTVSS	high polyreactivity
QVQLVESGGGLVQAGGSIRLSCAASGIIFYYYAMGWYRQAPGKERELVAGISYSGGSTYADSVKGRFTISRDNAKNTVYLQMNSLKPEDTAVYYCAADYDYGGHWYDYWGQGTQVTVSS	low polyreactivity
QVQLVESGGGLVQAGGSIRLSCAASGRIFARYAMGWYRQAPGTERELVASITVSGDNTYYADSVKGRFTISRDNAKKTVYLQMNSLKPEDTAVYYCAVRAVVLFGFFEYDYWGQGTQVTVSS	low polyreactivity
QVQLVESGGGLVQAGGSIRLSCAASGRIFGAYAIGWYRQAPGKERELVADIRTTGSTNYADSVKGRFTISRDNAKNTVYLQMNSLKPEDTAVYYCAARWRSRRFGSGFEYWGQGTQVTVSS	high polyreactivity
QVQLVESGGGLVQAGGSIRLSCAASGRTFARNAMGWYRKAPGKERELVAAISSSGGSTYYADSVKGRFTISRDNAKNTVYLQMNSLKPEDTAVYYCARYSSFTYDYWGQGTQVTVSS	high polyreactivity
QVQLVESGGGLVQAGGSIRLSCAASGRTFIYNVMGWYRQAPGKERELVAAISSGGNTNYADSVKGRFTISRDNAKNTVYLQMNSLKPEDPAVYYCNARWPLGVSRGGMGYWGQGTQVTVSS	high polyreactivity
QVQLVESGGGLVQAGGSIRLSCAASGRTFNYYAMGWYRQAPGKERELVAAIDSDGNTYYADSVKGRFTISRDNAKNTVYLQMNSLKPDDTAVYYCAADTHVNPNYDYWGQGTQVTVSS	low polyreactivity
QVQLVESGGGLVQAGGSIRLSCAASGSIFYHNAMGWYRPAPGKERELVAAITWSGSTTYYADSVKGRFTISRDNGKNTVYLQMNSLKPEDTAVYYCNAGNRHGHYDYWGQGTQVTVSS	low polyreactivity
QVQLVESGGGLVQAGGSIRLSCAASGSIYKYNAMGWYRQAPGKERELVAAISSGGSTNYADSVKGRFTISRDNAKNTVYLQMNSLKPEDTAVYYCAKDRRRWYYTRDYWGQGTQVTVSS	low polyreactivity
QVQLVESGGGLVQAGGSIRLSCAASGSIYPFYSMGWYRQATGKEMELVAAISDSGGDTYYADSVKGRFTISRDNAKNTVYLQMNSLKPEDTAVYYCAADWFYNSFNYWGQGTQVTVSS	low polyreactivity
QVQLVESGGGLVQAGGSIRLSCAASGSTFPGNAMGWYRQAPGKERELVASISGGGDSTYYADSVKGRFTISRDNAKNTVYLQMNSLKPEDTAVYYCAADTQGSVRPGYDYWGQGTQVTVSS	low polyreactivity
QVQLVESGGGLVQAGGSIRLSCSASGSTFNIYAMGWYRKAPGKERELVAAISGNGDRTYYADSVKGRFTISRDNAKNTVYLQMTSLKPEDTAVYYCAAKYYGWGQGTQVTVSS	high polyreactivity
QVQLVESGGGLVQAGGSIRLSSAASGLIFLGDPMGWYRQAPGKERELVASIRTGRSTSYADSVKGRFTFSRDNAKYTVYLQMNSLKPEDTAVYYCAADRGRPNLPGDYWGQGSQVTVSS	low polyreactivity
QVQLVESGGGLVQAGGSIRLTCAASGLIFLVYPMGWYRPAPGKERELVASIRTGRSTSYADSVKGRFTISRDNAKYTVYLQMNSLKPEDTAVYYCAADRGRPNLPGDYWGQGTQVTVSS	low polyreactivity
